Data taken from article PMC9612522.

Target: His-Pak4cat (UniProt O96013)
Sequence of UniProt O96013 (O96013 286-591): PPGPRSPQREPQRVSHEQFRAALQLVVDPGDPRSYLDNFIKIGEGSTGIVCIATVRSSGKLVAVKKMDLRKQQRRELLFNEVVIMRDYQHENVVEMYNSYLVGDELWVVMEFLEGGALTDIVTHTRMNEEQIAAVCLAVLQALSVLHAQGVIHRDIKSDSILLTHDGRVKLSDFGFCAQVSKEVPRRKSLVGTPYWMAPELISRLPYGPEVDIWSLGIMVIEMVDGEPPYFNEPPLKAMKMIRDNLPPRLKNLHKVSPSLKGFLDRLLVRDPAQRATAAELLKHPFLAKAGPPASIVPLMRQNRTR

Sequence of GST-Inka1-iBox (Q96EL1 166-203): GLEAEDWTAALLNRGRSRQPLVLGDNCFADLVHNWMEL
Sequence of GST-Inka2-iBox (Q9NTI7 133-193): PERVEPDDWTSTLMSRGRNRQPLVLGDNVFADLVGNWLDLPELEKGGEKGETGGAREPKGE

## GST-Inka1-iBox (from UniProt Q96EL1 166-203) (domain or fragment)
  IC50 of inhibition of His-Pak4cat kinase activity (in vitro kinase assay, ADP-Glo luminescence, AKT1 peptide substrate; dose-response with 0.75 ng-400 ng of GST-Inka1-iBox): 67.7 nM

## GST-Inka2-iBox (from UniProt Q9NTI7 133-193) (domain or fragment)
  IC50 of inhibition of His-Pak4cat kinase activity (in vitro kinase assay, ADP-Glo luminescence, AKT1 peptide substrate; dose-response with 0.75 ng-400 ng of GST-Inka2-iBox): 60.3 nM
